Measured values: patent US20250051455A1 (Hoffmann-La Roche, published 2025)

Target: T1, recombinant soluble human HLA-G β2M MHC class I complex, monomer (human)
T1 construct: His tagged; biotinylated where coated on streptavidin plates, non-biotinylated in SPR; also called HLA-G-0003; wt HLA-G (monomer)
Assay: SPR Biacore T200, antibody captured via anti-Fc, HLA-G monomer as analyte, 25 C
Description: Binding kinetics of anti-HLA-G antibodies to human HLA-G, human HLA-G degrafted and human HLA-A2 were investigated by surface plasmon resonance using a BIACORE T200 instrument (GE Healthcare). All experiments were performed at 25° C. using PBS Buffer (pH 7.4+0.05% Tween20) as running buffer and PBS Buffer (+0.1% BSA) as dilution buffer. Anti-human Fc (JIR009-005-098, Jackson) or anti-rat Fc (JIR112-005-071, Jackson) or anti-Mouse Fc (JIR115-005-071, Jackson) antibodies were immobilized on a Series S CM5 Sensor Chip (GE Healthcare) at pH 5.0 by using an amine coupling kit supplied by GE Healthcare. Anti-HLA-G antibodies were captured on the surface leading to a capturing response of 50-200 RU. HLA-G molecules were injected for 180 s at 30 μl/min with concentrations from 2.5 up to 800 nM (2×1:2 and 4×1:3 dilution series) onto the surface (association phase). The dissociation phase was monitored for 300-600 sec by washing with running buffer. The surface was regenerated by injecting H3PO4 (0,85%) for 60+30 seconds for anti-human Fc capturing antibodies, glycine pH1,5 for 60 seconds and glycine pH2,0 for 60 seconds for anti-rat Fc capturing antibodies, H3PO4 (0,85%) for 80+60 seconds for anti-mouse Fc capturing antibodies. Bulk refractive index differences were corrected by subtracting the response obtained from a mock surface. Blank injections were subtracted (double referencing). The derived curves were fitted to a 1:1 Langmuir binding model using the BIAevaluation software.
The above table summarizes the antibody affinities and t½ values against wt and degrafted HLA-G as assessed by Surface plasmon resonance (Biacore) analysis. Binding kinetics of anti-HLA-G antibodies to human HLA-G and human HLA-G degrafted were investigated by surface plasmon resonance using a BIACORE T200 instrument (GE Healthcare). All experiments were performed at 25° C. using PBS Buffer (pH 7.4+0.05% Tween20) as running buffer and PBS Buffer (+0.1% BSA) as dilution buffer. Anti-human Fc (JIR009-005-098, Jackson) or anti-rat Fc (JIR112-005-071, Jackson) or anti-Mouse Fc (JIR115-005-071, Jackson) antibodies were immobilized on a Series S CM5 Sensor Chip (GE Healthcare) at pH 5.0 by using an amine coupling kit supplied by GE Healthcare.

- Kd: 24 nM
- koff: 0.002 s⁻¹
- kon: 83000 M⁻¹ s⁻¹
- t 1/2: 6 min
B1: HLA-G-0031-0104 (humanized variant of HLA-G-0031) (antibody, V domains shown)
VH: QVQLVQSGAEVKKPGASVKVSCKASGYTFTDYWVSWVRQAPGQRLEWMGEISPNSGASNFDENFQGRVTITRDTSASTAYMELSSLRSEDTAVYYCTRSSHGSFRWFAYWGQGTLVTVSS
VL: DIQMTQSPSSLSASVGDRVTITCRASSSVSSNHLHWYQQKPGKAPKFLIYSTSQRASGVPSRFSGSGSGTEFTLTISSLQPEDFATYYCQQGSSNPYTFGQGTKLEIK
notes: Humanized variant (VH framework IGHV1-3, VL framework IGKV1-17 with back-mutation R46F, Kabat)
